Test results reported in patent publication US20220411483A1 (Chugai, published 2022).

T1: FcγRIIb extracellular domain with C-terminal His tag (human, UniProt P31994 43-217)
T1 construct: extracellular domain; also called FcgRIIb; not shown: His tag at the C terminus
T1 sequence (looked up): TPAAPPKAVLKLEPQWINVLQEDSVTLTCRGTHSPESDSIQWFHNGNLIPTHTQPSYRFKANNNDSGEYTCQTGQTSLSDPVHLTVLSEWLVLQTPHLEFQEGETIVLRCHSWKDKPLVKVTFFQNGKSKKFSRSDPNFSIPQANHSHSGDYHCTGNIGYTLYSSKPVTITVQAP

T2: FcγRIIa R type extracellular domain with C-terminal His tag (human, UniProt P12318 34-217)
T2 construct: extracellular domain; also called FcgRIIaR; not shown: His tag at the C terminus
T2 sequence (looked up): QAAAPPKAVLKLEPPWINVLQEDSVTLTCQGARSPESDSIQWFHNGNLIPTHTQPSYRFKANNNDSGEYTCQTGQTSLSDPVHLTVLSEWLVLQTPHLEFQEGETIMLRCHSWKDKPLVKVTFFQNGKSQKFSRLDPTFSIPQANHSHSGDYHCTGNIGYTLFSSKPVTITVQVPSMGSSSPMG


Assays:
Experiment in all cases: SPR, antibody captured, FcgR analyte
[1] = target: T3, FcγRIa extracellular domain with C-terminal His tag (human, UniProt P12314 16-292)
T3 construct: also called FcgRIa; CD64; not shown: His tag at the C terminus
T3 sequence (P12314 16-292): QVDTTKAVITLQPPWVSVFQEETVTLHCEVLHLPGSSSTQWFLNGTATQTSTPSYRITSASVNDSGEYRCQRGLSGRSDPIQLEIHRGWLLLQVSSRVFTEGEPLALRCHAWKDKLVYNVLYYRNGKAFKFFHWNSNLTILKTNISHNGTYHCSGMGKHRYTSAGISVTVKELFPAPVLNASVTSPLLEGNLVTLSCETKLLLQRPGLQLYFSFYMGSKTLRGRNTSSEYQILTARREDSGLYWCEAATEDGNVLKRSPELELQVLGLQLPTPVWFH

[2] = target: T1, FcγRIIb extracellular domain with …
[3] = target: T2, FcγRIIa R type extracellular domain …

Binder	Kd [1]	Kd [2]	Kd [3]
IL6R-BP249/IL6R-L (antibody, human IgG1, kappa, name in EU numbering, human IgG1) heavy: QVQLQESGPGLVKPSETLSLTCAVSGHSISHDHAWSWVRQPPGEGLEWIGFISYSGITNYNPSLQGRVTISRDNSKNTLYLQMNSLRAEDTAVYYCARSLARTTAMDYWGEGTLVTVSSASTKGPSVFPLAPSSKSTSGGTAALGCLVKDYFPEPVTVSWNSGALTSGVHTFPAVLQSSGLYSLSSVVTVPSSSLGTQTYICNVNHKPSNTKVDKKVEPKSCDKTHTCPPCPAPDYLGDDSVFLFPPKPKDTLMISRTPEVTCVVVDVSDEDGEVKFNWYVDGVEVHNAKTKPREEQDNSTYRVVSVLTVLHQDWLNGKEYKCKVSNKALPRPIEKTISKAKGQPREPQVYTLPPSRDELTKNQVSLTCLVKGFYPSDIAVEWESNGQPENNYKTTPPVLDSDGSFFLYSKLTVDKSRWQQGNVFSCSVMHEALHNHYTQESLSLSP light: not shown	7 nM		
IL6R-BP264/IL6R-L (antibody, human IgG1, kappa, name in EU numbering, human IgG1) heavy: QVQLQESGPGLVKPSETLSLTCAVSGHSISHDHAWSWVRQPPGEGLEWIGFISYSGITNYNPSLQGRVTISRDNSKNTLYLQMNSLRAEDTAVYYCARSLARTTAMDYWGEGTLVTVSSASTKGPSVFPLAPSSKSTSGGTAALGCLVKDYFPEPVTVSWNSGALTSGVHTFPAVLQSSGLYSLSSVVTVPSSSLGTQTYICNVNHKPSNTKVDKKVEPKSCDKTHTCPPCPAPDLLGDDSVFLFPPKPKDTLMISRTPEVTCVVVDVSEEDGEVKFNWYVDGVEVHNAKTKPREEQDNSTYRVVSVLTVLHQDWLNGKEYKCKVSNKALPRPIEKTISKAKGQPREPQVYTLPPSRDELTKNQVSLTCLVKGFYPSDIAVEWESNGQPENNYKTTPPVLDSDGSFFLYSKLTVDKSRWQQGNVFSCSVMHEALHNHYTQESLSLSP light: not shown	7.4 nM		350 nM
IL6R-BP435/IL6R-L (antibody, human IgG1, kappa, name in EU numbering, human IgG1) heavy: QVQLQESGPGLVKPSETLSLTCAVSGHSISHDHAWSWVRQPPGEGLEWIGFISYSGITNYNPSLQGRVTISRDNSKNTLYLQMNSLRAEDTAVYYCARSLARTTAMDYWGEGTLVTVSSASTKGPSVFPLAPSSKSTSGGTAALGCLVKDYFPEPVTVSWNSGALTSGVHTFPAVLQSSGLYSLSSVVTVPSSSLGTQTYICNVNHKPSNTKVDKKVEPKSCDKTHTCPPCPAPDLLGDDSVFLFPPKPKDTLMISRTPEVTCVVVDVSDEDGEVKFNWYVDGVEVHNAKTKPREEQDNSTYRVVSVLTVLHQDWLNGKEYKCKVSNAALPRPTEKTISKAKGQPREPQVYTLPPSRDELTKNQVSLTCLVKGFYPSDIAVEWESNGQPENNYKTTPPVLDSDGSFFLYSKLTVDKSRWQQGNVFSCSVMHEALHNHYTQESLSLSP light: not shown	1 nM		
IL6R-BP445/IL6R-L (antibody, human IgG1, kappa, name in EU numbering, human IgG1) heavy: QVQLQESGPGLVKPSETLSLTCAVSGHSISHDHAWSWVRQPPGEGLEWIGFISYSGITNYNPSLQGRVTISRDNSKNTLYLQMNSLRAEDTAVYYCARSLARTTAMDYWGEGTLVTVSSASTKGPSVFPLAPSSKSTSGGTAALGCLVKDYFPEPVTVSWNSGALTSGVHTFPAVLQSSGLYSLSSVVTVPSSSLGTQTYICNVNHKPSNTKVDKKVEPKSCDKTHTCPPCPAPDLLGDDSVFLFPPKPKDTLMISRTPEVTCVVIDVAEEDGEVKFNWYVDGVEVHNAKTKPREEQYNSTYRVVSVLTVLHQDWLNGKEYKCKVSNKALPRPIEKTISKAKGQPREPQVYTLPPSRDELTKNQVSLTCLVKGFYPSDIAVEWESNGQPENNYKTTPPVLDSDGSFFLYSKLTVDKSRWQQGNVFSCSVMHEALHNHYTQESLSLSP light: not shown	2 nM	2.6 nM	80 nM
IL6R-BP426/IL6R-L (antibody, human IgG1, kappa, name in EU numbering, human IgG1) heavy: QVQLQESGPGLVKPSETLSLTCAVSGHSISHDHAWSWVRQPPGEGLEWIGFISYSGITNYNPSLQGRVTISRDNSKNTLYLQMNSLRAEDTAVYYCARSLARTTAMDYWGEGTLVTVSSASTKGPSVFPLAPSSKSTSGGTAALGCLVKDYFPEPVTVSWNSGALTSGVHTFPAVLQSSGLYSLSSVVTVPSSSLGTQTYICNVNHKPSNTKVDKKVEPKSCDKTHTCPPCPAPDLLGDDSVFLFPPKPKDTLMISRTPEVTCVVVDVAEDDGEVKFNWYVDGVEVHNAKTKPREEQYNSTYRVVSVLTVLHQDWLNGKEYKCKVSNKALPRPIEKTISKAKGQPREPQVYTLPPSRDELTKNQVSLTCLVKGFYPSDIAVEWESNGQPENNYKTTPPVLDSDGSFFLYSKLTVDKSRWQQGNVFSCSVMHEALHNHYTQESLSLSP light: not shown	1 nM		
IL6R-BP268/IL6R-L (antibody, human IgG1, kappa, name in EU numbering, human IgG1) heavy: QVQLQESGPGLVKPSETLSLTCAVSGHSISHDHAWSWVRQPPGEGLEWIGFISYSGITNYNPSLQGRVTISRDNSKNTLYLQMNSLRAEDTAVYYCARSLARTTAMDYWGEGTLVTVSSASTKGPSVFPLAPSSKSTSGGTAALGCLVKDYFPEPVTVSWNSGALTSGVHTFPAVLQSSGLYSLSSVVTVPSSSLGTQTYICNVNHKPSNTKVDKKVEPKSCDKTHTCPPCPAPDLLGDDSVFLFPPKPKDTLMISRTPEVTCVVVDVSEEDGEVKFNWYVDGVEVHNAKTKPREEQDNSTYRVVSVLTVLHQDWLNGKEYKCKVSNKALPAPIEKTISKAKGQPREPQVYTLPPSRDELTKNQVSLTCLVKGFYPSDIAVEWESNGQPENNYKTTPPVLDSDGSFFLYSKLTVDKSRWQQGNVFSCSVMHEALHNHYTQESLSLSP light: not shown	4.5 nM	92 nM	

The next lines start with the values.

Kd [1]	Kd [2]	Kd [3]	Binder
8.3 nM	9.7 nM		IL6R-BP495/IL6R-L (antibody, human IgG1, kappa, name in EU numbering, human IgG1) heavy: QVQLQESGPGLVKPSETLSLTCAVSGHSISHDHAWSWVRQPPGEGLEWIGFISYSGITNYNPSLQGRVTISRDNSKNTLYLQMNSLRAEDTAVYYCARSLARTTAMDYWGEGTLVTVSSASTKGPSVFPLAPSSKSTSGGTAALGCLVKDYFPEPVTVSWNSGALTSGVHTFPAVLQSSGLYSLSSVVTVPSSSLGTQTYICNVNHKPSNTKVDKKVEPKSCDKTHTCPPCPAPELLGDDSVFLFPPKPKDTLMISRTPEVTCVVVDVGEEDGEVKFNWYVDGVEVHNAKTKPREEQDNSTYRVVSVLTVLHQDWLNGKEYKCKVSNKALPRPIEKTISKAKGQPREPQVYTLPPSRDELTKNQVSLTCLVKGFYPSDIAVEWESNGQPENNYKTTPPVLDSDGSFFLYSKLTVDKSRWQQGNVFSCSVMHEALHNHYTQESLSLSP light: not shown
	200 nM	6300 nM	IL6R-BP480/IL6R-L (antibody, human IgG1, kappa, name in EU numbering, human IgG1) heavy: QVQLQESGPGLVKPSETLSLTCAVSGHSISHDHAWSWVRQPPGEGLEWIGFISYSGITNYNPSLQGRVTISRDNSKNTLYLQMNSLRAEDTAVYYCARSLARTTAMDYWGEGTLVTVSSASTKGPSVFPLAPSSKSTSGGTAALGCLVKDYFPEPVTVSWNSGALTSGVHTFPAVLQSSGLYSLSSVVTVPSSSLGTQTYICNVNHKPSNTKVDKKVEPKSCDKTHTCPPCPAPDLLGDDSVFLFPPKPKDTLMISRTPEVTCVVVDLSEDDGEVKFNWYVDGVEVHNAKTKPREEQYNSTYRVVSVLTVLHQDWLNGKEYKCKVSNKALPAPIEKTISKAKGQPREPQVYTLPPSRDELTKNQVSLTCLVKGFYPSDIAVEWESNGQPENNYKTTPPVLDSDGSFFLYSKLTVDKSRWQQGNVFSCSVMHEALHNHYTQESLSLSP light: not shown
0.82 nM	21 nM		IL6R-BP493/IL6R-L (antibody, human IgG1, kappa, name in EU numbering, human IgG1) heavy: QVQLQESGPGLVKPSETLSLTCAVSGHSISHDHAWSWVRQPPGEGLEWIGFISYSGITNYNPSLQGRVTISRDNSKNTLYLQMNSLRAEDTAVYYCARSLARTTAMDYWGEGTLVTVSSASTKGPSVFPLAPSSKSTSGGTAALGCLVKDYFPEPVTVSWNSGALTSGVHTFPAVLQSSGLYSLSSVVTVPSSSLGTQTYICNVNHKPSNTKVDKKVEPKSCDKTHTCPPCPAPELLGGDSVFLFPPKPKDTLMISRTPEVTCVVIDVAEEDGEVKFNWYVDGVEVHNAKTKPREEQDNSTYRVVSVLTVLHQDWLNGKEYKCKVSNKALPAPIEKTISKAKGQPREPQVYTLPPSRDELTKNQVSLTCLVKGFYPSDIAVEWESNGQPENNYKTTPPVLDSDGSFFLYSKLTVDKSRWQQGNVFSCSVMHEALHNHYTQESLSLSP light: not shown
	20 nM	850 nM	IL6R-BP557/IL6R-L (antibody, human IgG1, kappa, name in EU numbering, human IgG1) heavy: QVQLQESGPGLVKPSETLSLTCAVSGHSISHDHAWSWVRQPPGEGLEWIGFISYSGITNYNPSLQGRVTISRDNSKNTLYLQMNSLRAEDTAVYYCARSLARTTAMDYWGEGTLVTVSSASTKGPSVFPLAPSSKSTSGGTAALGCLVKDYFPEPVTVSWNSGALTSGVHTFPAVLQSSGLYSLSSVVTVPSSSLGTQTYICNVNHKPSNTKVDKKVEPKSCDKTHTCPPCPAPELLGDDSVFLFPPKPKDTLMISRTPEVTCVVVDVGDEDGEVKFNWYVDGVEVHNAKTKPREEQDNSTYRVVSVLTVLHQDWLNGKEYKCKVSNKALPRPIEKTISKAKGQPREPQVYTLPPSRDELTKNQVSLTCLVKGFYPSDIAVEWESNGQPENNYKTTPPVLDSDGSFFLYSKLTVDKSRWQQGNVFSCSVMHEALHNHYTQESLSLSP light: not shown
2.1 nM	25 nM		IL6R-BP501/IL6R-L (antibody, human IgG1, kappa, name in EU numbering, human IgG1) heavy: QVQLQESGPGLVKPSETLSLTCAVSGHSISHDHAWSWVRQPPGEGLEWIGFISYSGITNYNPSLQGRVTISRDNSKNTLYLQMNSLRAEDTAVYYCARSLARTTAMDYWGEGTLVTVSSASTKGPSVFPLAPSSKSTSGGTAALGCLVKDYFPEPVTVSWNSGALTSGVHTFPAVLQSSGLYSLSSVVTVPSSSLGTQTYICNVNHKPSNTKVDKKVEPKSCDKTHTCPPCPAPELLGDDSVFLFPPKPKDTLMISRTPEVTCVVIDVAEEDGEVKFNWYVDGVEVHNAKTKPREEQYNSTYRVVSVLTVLHQDWLNGKEYKCKVSNKALPAPIEKTISKAKGQPREPQVYTLPPSRDELTKNQVSLTCLVKGFYPSDIAVEWESNGQPENNYKTTPPVLDSDGSFFLYSKLTVDKSRWQQGNVFSCSVMHEALHNHYTQESLSLSP light: not shown
